In publication PMC5813103, “Hydroxynitrile lyases from cyanogenic millipedes: molecular cloning, heterologous expression, and whole-cell biocatalysis for the production of (R)-mandelonitrile” (Scientific Reports, 2018):

Target: Hydroxynitrile lyase from Nedyopus tambanus tambanus (NttHNL) (Nedyopus tambanus tambanus)
Test: SEC; gel filtration of the purified native enzyme; Superdex 200 10/300 equilibrated with PBS; native 52400 Da against 28800 Da on SDS-PAGE

stoichiometry N: 2
Substance: Hydroxynitrile lyase from Nedyopus tambanus tambanus (NttHNL) (enzyme)
